Test results as given in IntAct's records for PubMed 16367866.

B1: Translocated intimin receptor Tir (Escherichia coli O127:H6 (strain E2348/69 / EPEC)), B7UM99 (parent)
chain: MPIGNLGNNVNGNHLIPPAPPLPSQTDGAARGGTGHLISSTGALGSRSLFSPLRNSMADSVDSRDIPGLPTNPSRLAAATSETCLLGGFEVLHDKGPLDILNTQIGPSAFRVEVQADGTHAAIGEKNGLEVSVTLSPQEWSSLQSIDTEGKNRFVFTGGRGGSGHPMVTVASDIAEARTKILAKLDPDNHGGRQPKDVDTRSVGVGSASGIDDGVVSETHTSTTNSSVRSDPKFWVSVGAIAAGLAGLAATGIAQALALTPEPDDPTTTDPDQAANAAESATKDQLTQEAFKNPENQKVNIDANGNAIPSGELKDDIVEQIAQQAKEAGEVARQQAVESNAQAQQRYEDQHARRQEELQLSSGIGYGLSSALIVAGGIGAGVTTALHRRNQPAEQTTTTTTHTVVQQQTGGNTPAQGGTDATRAEDASLNRRDSQGSVASTHWSDSSSEVVNPYAEVGGARNSLSAHQPEEHIYDEVAADPGYSVIQNFSGSGPVTGRLIGTPGQGIQSTYALLANSGGLRLGMGGLTSGGESAVSSVNAAPTPGPVRFV
partner: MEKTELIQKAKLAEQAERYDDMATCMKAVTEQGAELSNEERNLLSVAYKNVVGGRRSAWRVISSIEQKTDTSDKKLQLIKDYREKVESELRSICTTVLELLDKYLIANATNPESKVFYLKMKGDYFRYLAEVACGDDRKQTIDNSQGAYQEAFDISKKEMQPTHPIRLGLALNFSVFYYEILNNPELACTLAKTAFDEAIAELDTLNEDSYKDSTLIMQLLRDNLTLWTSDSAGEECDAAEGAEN

Variants of: B1
Conditions: with 1433t_human YWHAQ
For S434A, the “effect of a mutation on the interaction” value was “with no effect”. For S51A, the “effect of a mutation on the interaction” value was “with no effect”. S465A was tested, and the “effect of a mutation on the interaction” value was “with no effect”.
